Reference: the Human Domainome abundance scans (Beltran et al. 2025)
± gives the uncertainty stated by the source.

B1: TGF-beta-activated kinase 1 and MAP3K7-binding protein 3, residues 12 to 50; numbered along this chain, Q8N5C8 (parent)
chain: VLHDLRQRFPEIPEGVVSQCMLQNNNNLEACCRALSQES

Variants of: B1
Experiment: abundance fitness (aPCA) (normalised: wild type 0, dead -1); higher = more abundant; growth selection in yeast, the domain comes from the species named
Details: Homo sapiens

**Q.** For VLHALRQRFPEIPEGVVSQCMLQNNNNLEACCRALSQES [D4A], which abundance fitness is on record?
**A.** 0.013 ± 0.051

**Q.** With VLHQLRQRFPEIPEGVVSQCMLQNNNNLEACCRALSQES [D4Q] as the variant, how does the abundance fitness read?
**A.** 0.167 ± 0.052

**Q.** With VLHELRQRFPEIPEGVVSQCMLQNNNNLEACCRALSQES [D4E] as the variant, how does the abundance fitness read?
**A.** 0.248 ± 0.045

**Q.** For VLHGLRQRFPEIPEGVVSQCMLQNNNNLEACCRALSQES [D4G], which abundance fitness is on record?
**A.** -0.676 ± 0.055

**Q.** For VLHYLRQRFPEIPEGVVSQCMLQNNNNLEACCRALSQES [D4Y], which abundance fitness is on record?
**A.** -0.054 ± 0.18

**Q.** For VLHRLRQRFPEIPEGVVSQCMLQNNNNLEACCRALSQES [D4R], which abundance fitness is on record?
**A.** -0.112 ± 0.038

**Q.** For VLHTLRQRFPEIPEGVVSQCMLQNNNNLEACCRALSQES [D4T], which abundance fitness is on record?
**A.** 0.02 ± 0.048

**Q.** Which abundance fitness does the source give for VLHDLRMRFPEIPEGVVSQCMLQNNNNLEACCRALSQES [Q7M] here?
**A.** 0.064 ± 0.064

**Q.** For VLHDLRSRFPEIPEGVVSQCMLQNNNNLEACCRALSQES [Q7S], which abundance fitness is on record?
**A.** 0.026 ± 0.061

**Q.** Which abundance fitness does the source give for VLHDLRVRFPEIPEGVVSQCMLQNNNNLEACCRALSQES [Q7V] here?
**A.** -0.135 ± 0.047

**Q.** Which abundance fitness does the source give for VLHDLRRRFPEIPEGVVSQCMLQNNNNLEACCRALSQES [Q7R] here?
**A.** 0.103 ± 0.038

**Q.** For VLHDLRCRFPEIPEGVVSQCMLQNNNNLEACCRALSQES [Q7C], which abundance fitness is on record?
**A.** -0.658 ± 0.14

**Q.** With VLHDLRDRFPEIPEGVVSQCMLQNNNNLEACCRALSQES [Q7D] as the variant, how does the abundance fitness read?
**A.** -0.083 ± 0.1

**Q.** Which abundance fitness does the source give for VLHDLRKRFPEIPEGVVSQCMLQNNNNLEACCRALSQES [Q7K] here?
**A.** 0.003 ± 0.12

**Q.** For VLHDLRPRFPEIPEGVVSQCMLQNNNNLEACCRALSQES [Q7P], which abundance fitness is on record?
**A.** -1.02 ± 0.17

**Q.** Which abundance fitness does the source give for VLHDLRFRFPEIPEGVVSQCMLQNNNNLEACCRALSQES [Q7F] here?
**A.** -0.634 ± 0.1

**Q.** With VLHDLRNRFPEIPEGVVSQCMLQNNNNLEACCRALSQES [Q7N] as the variant, how does the abundance fitness read?
**A.** -0.225 ± 0.062

**Q.** For VLHDLRIRFPEIPEGVVSQCMLQNNNNLEACCRALSQES [Q7I], which abundance fitness is on record?
**A.** -0.077 ± 0.07

**Q.** For VLHDLRGRFPEIPEGVVSQCMLQNNNNLEACCRALSQES [Q7G], which abundance fitness is on record?
**A.** -0.413 ± 0.042

**Q.** For VLHDLRWRFPEIPEGVVSQCMLQNNNNLEACCRALSQES [Q7W], which abundance fitness is on record?
**A.** -1.08 ± 0.16

**Q.** With VLHDLRTRFPEIPEGVVSQCMLQNNNNLEACCRALSQES [Q7T] as the variant, how does the abundance fitness read?
**A.** -0.089 ± 0.052

**Q.** For VLHDLRERFPEIPEGVVSQCMLQNNNNLEACCRALSQES [Q7E], which abundance fitness is on record?
**A.** 0.072 ± 0.046

**Q.** Which abundance fitness does the source give for VLTDLRQRFPEIPEGVVSQCMLQNNNNLEACCRALSQES [H3T] here?
**A.** -0.019 ± 0.045

**Q.** For VLEDLRQRFPEIPEGVVSQCMLQNNNNLEACCRALSQES [H3E], which abundance fitness is on record?
**A.** 0.201 ± 0.046

**Q.** Which abundance fitness does the source give for VLSDLRQRFPEIPEGVVSQCMLQNNNNLEACCRALSQES [H3S] here?
**A.** 0.066 ± 0.059

**Q.** With VLNDLRQRFPEIPEGVVSQCMLQNNNNLEACCRALSQES [H3N] as the variant, how does the abundance fitness read?
**A.** -0.14 ± 0.24

**Q.** Which abundance fitness does the source give for VLRDLRQRFPEIPEGVVSQCMLQNNNNLEACCRALSQES [H3R] here?
**A.** 0.088 ± 0.045

**Q.** Which abundance fitness does the source give for VLDDLRQRFPEIPEGVVSQCMLQNNNNLEACCRALSQES [H3D] here?
**A.** -0.066 ± 0.094

**Q.** For VLCDLRQRFPEIPEGVVSQCMLQNNNNLEACCRALSQES [H3C], which abundance fitness is on record?
**A.** -0.191 ± 0.083

**Q.** For VLMDLRQRFPEIPEGVVSQCMLQNNNNLEACCRALSQES [H3M], which abundance fitness is on record?
**A.** -0.023 ± 0.059

**Q.** Which abundance fitness does the source give for VLYDLRQRFPEIPEGVVSQCMLQNNNNLEACCRALSQES [H3Y] here?
**A.** -0.391 ± 0.18

**Q.** Which abundance fitness does the source give for VLVDLRQRFPEIPEGVVSQCMLQNNNNLEACCRALSQES [H3V] here?
**A.** -0.331 ± 0.049

**Q.** Which abundance fitness does the source give for VLQDLRQRFPEIPEGVVSQCMLQNNNNLEACCRALSQES [H3Q] here?
**A.** 0.266 ± 0.047

**Q.** For VLPDLRQRFPEIPEGVVSQCMLQNNNNLEACCRALSQES [H3P], which abundance fitness is on record?
**A.** -0.483 ± 0.061

**Q.** Which abundance fitness does the source give for VLGDLRQRFPEIPEGVVSQCMLQNNNNLEACCRALSQES [H3G] here?
**A.** -0.078 ± 0.043

**Q.** With VLFDLRQRFPEIPEGVVSQCMLQNNNNLEACCRALSQES [H3F] as the variant, how does the abundance fitness read?
**A.** -0.342 ± 0.13

**Q.** Which abundance fitness does the source give for VLKDLRQRFPEIPEGVVSQCMLQNNNNLEACCRALSQES [H3K] here?
**A.** 0.09 ± 0.06

**Q.** Which abundance fitness does the source give for VLIDLRQRFPEIPEGVVSQCMLQNNNNLEACCRALSQES [H3I] here?
**A.** -0.096 ± 0.18

**Q.** With VVHDLRQRFPEIPEGVVSQCMLQNNNNLEACCRALSQES [L2V] as the variant, how does the abundance fitness read?
**A.** -0.531 ± 0.065

**Q.** Which abundance fitness does the source give for VGHDLRQRFPEIPEGVVSQCMLQNNNNLEACCRALSQES [L2G] here?
**A.** -0.583 ± 0.069

**Q.** With VTHDLRQRFPEIPEGVVSQCMLQNNNNLEACCRALSQES [L2T] as the variant, how does the abundance fitness read?
**A.** -0.194 ± 0.14

**Q.** Which abundance fitness does the source give for VIHDLRQRFPEIPEGVVSQCMLQNNNNLEACCRALSQES [L2I] here?
**A.** -0.049 ± 0.07

**Q.** Which abundance fitness does the source give for VEHDLRQRFPEIPEGVVSQCMLQNNNNLEACCRALSQES [L2E] here?
**A.** -0.588 ± 0.15

**Q.** With VPHDLRQRFPEIPEGVVSQCMLQNNNNLEACCRALSQES [L2P] as the variant, how does the abundance fitness read?
**A.** -0.246 ± 0.27

**Q.** For VSHDLRQRFPEIPEGVVSQCMLQNNNNLEACCRALSQES [L2S], which abundance fitness is on record?
**A.** -0.221 ± 0.12

**Q.** With VQHDLRQRFPEIPEGVVSQCMLQNNNNLEACCRALSQES [L2Q] as the variant, how does the abundance fitness read?
**A.** -0.276 ± 0.076

**Q.** Which abundance fitness does the source give for VHHDLRQRFPEIPEGVVSQCMLQNNNNLEACCRALSQES [L2H] here?
**A.** 0.077 ± 0.1

**Q.** With VRHDLRQRFPEIPEGVVSQCMLQNNNNLEACCRALSQES [L2R] as the variant, how does the abundance fitness read?
**A.** -0.464 ± 0.047

**Q.** With VAHDLRQRFPEIPEGVVSQCMLQNNNNLEACCRALSQES [L2A] as the variant, how does the abundance fitness read?
**A.** -0.187 ± 0.058

**Q.** Which abundance fitness does the source give for VWHDLRQRFPEIPEGVVSQCMLQNNNNLEACCRALSQES [L2W] here?
**A.** -0.134 ± 0.049

**Q.** Which abundance fitness does the source give for VFHDLRQRFPEIPEGVVSQCMLQNNNNLEACCRALSQES [L2F] here?
**A.** 0.211 ± 0.12

**Q.** With VNHDLRQRFPEIPEGVVSQCMLQNNNNLEACCRALSQES [L2N] as the variant, how does the abundance fitness read?
**A.** -0.058 ± 0.1

**Q.** For VLHDMRQRFPEIPEGVVSQCMLQNNNNLEACCRALSQES [L5M], which abundance fitness is on record?
**A.** -0.493 ± 0.074

**Q.** Which abundance fitness does the source give for VLHDARQRFPEIPEGVVSQCMLQNNNNLEACCRALSQES [L5A] here?
**A.** -0.905 ± 0.094

**Q.** Which abundance fitness does the source give for VLHDRRQRFPEIPEGVVSQCMLQNNNNLEACCRALSQES [L5R] here?
**A.** -0.722 ± 0.064

**Q.** For VLHDHRQRFPEIPEGVVSQCMLQNNNNLEACCRALSQES [L5H], which abundance fitness is on record?
**A.** -0.4 ± 0.34

**Q.** For VLHDIRQRFPEIPEGVVSQCMLQNNNNLEACCRALSQES [L5I], which abundance fitness is on record?
**A.** 0.286 ± 0.22

**Q.** For VLHDQRQRFPEIPEGVVSQCMLQNNNNLEACCRALSQES [L5Q], which abundance fitness is on record?
**A.** -0.589 ± 0.14

**Q.** With VLHDWRQRFPEIPEGVVSQCMLQNNNNLEACCRALSQES [L5W] as the variant, how does the abundance fitness read?
**A.** -0.885 ± 0.14

**Q.** For VLHDSRQRFPEIPEGVVSQCMLQNNNNLEACCRALSQES [L5S], which abundance fitness is on record?
**A.** -0.914 ± 0.18

**Q.** With VLHDVRQRFPEIPEGVVSQCMLQNNNNLEACCRALSQES [L5V] as the variant, how does the abundance fitness read?
**A.** -0.896 ± 0.097

**Q.** For VLHDERQRFPEIPEGVVSQCMLQNNNNLEACCRALSQES [L5E], which abundance fitness is on record?
**A.** -0.362 ± 0.073

**Q.** Which abundance fitness does the source give for VLHDDRQRFPEIPEGVVSQCMLQNNNNLEACCRALSQES [L5D] here?
**A.** -0.191 ± 0.062

**Q.** Which abundance fitness does the source give for VLHDKRQRFPEIPEGVVSQCMLQNNNNLEACCRALSQES [L5K] here?
**A.** -0.532 ± 0.08
